Results from the DeepSol protein solubility set.

Assay: soluble on expression in E. coli; label from the status in PepcDB or PDB records

Sequence | soluble on expression in E. coli
MRILHTADWHLGKTLEGRSRLSEQADVLDELNTIVKDEQIDAIVMAGDAFDTVNPPALAEQLFYESLSALSDRGKRPIVVIAGNHDNPDRLSAASPLTHENGIHLIGYPTTEPIHIEVPSAGELLAVGALAYPSEARLNEVLSDTFDEKLLRDHYDVKIRQAFEHMTSRFRTDAVKIAASHIYVAGGNQTDSDGPIEVGGAYTVAAESLPADAAYVALGHLHRPQTIKRARTLARYSGSPLAYSFSEAGYAKSVTIVDAKPGEEATWQEVLLSSGKPLVKWKAANGLSEVYSWLDEGRDQNAWIDLEIRVADQLSLEEIHRLRKAHPGFIHIRPVFEEQNKDRERIEVKHVSIEDRFKKFYEKQTGGAVPDEEMVRLFLELASGVEEEDAK | not soluble
MEESDVLISLIEILKIHQKVIDYDKFKDPEDYTPAIRSLATLELMFEYLIKESNTIFENAAVIVYTIVAKHPFFNGNKRTGYEAMNFIIEDGGYGFTSTDEEMIEFIIRVATTENEMSIEEIKEWIIRHTEKILLEHHHHHH | soluble
MSLKINRIVNEGFMKTMLAAYLLGNSTVDLREVAVPTPGINQVLIKMKSSGICGSDVHYIYHQHRATAAAPDKPLYQGFINGHEPCGQIVAMGQGCRHFKEGDRVLVYHISGCGFCPNCRRGFPISCTGKGKAAYGWQRDGGHAEYLLAEEKDLILLPDALSYEDGAFISCGVGTAYEGILRGEVSGSDNVLVVGLGPVGMMAMMLAKGRGAKRIIGVDMLPERLAMAKQLGGMDHGYLATTEGLPQIIAELTHGGADVALDCSGNAAGRLLALQSTADWGRVVYIGETGKVEFEVSADLMHHQRRIIGSWVTSLFHMEKCAHDLTDWKLWPRNAITHRFSLEQAGDAYVLMASGKCGKVVINFPDEGHHHHHH | not soluble
MLSRSAKPVAPNSPLMALLPYSFNRPINVLVMGLDQSETGEQAEKFDTRSDTLLLLRFDPLEGTTSLLSIPRDTQVAIPGYGTTKINAANVFGGPALAADVVSRTLNDVPIDRYLRIDTTAFKELVDLVGGVEVYVPKPMRYTDNTQKLYIDLPAGRQTLNGDQAEQFARFRYDELGDIGRVQRQQMLLRALREKLANPLILTKAPDLVKVLQKYVDTNLSFEELMALVSIGLQQDLANIRMVMLPGRPIMQDDVSYWRLDEGARDRLVSDFFNQISIQPIDRLAFEDLRVAIQDSSGKPEAAQALAESLAKLGIRRVYIIEDWPEPLEKTQIIAQRGDLIQAEGLQQQLNLGEVRASSDGDIGSDLTIRIGQDWQPTPSPKPLEHHHHHH | soluble
MGFFSGQFSNVVEWEEFREDMIFWKWHNREIKRGSKLIIRPGQDAIFLFNGRIEGIFKDEGDYDIESQIIPFLSTLQGFKFGFNSGMRAEVLFVNTKEFTAKWGTKSAINIPTPQLPGGIPIRANGTFTFKVNDYVKLIDRIAGVKDSFLVEDVRLRIMALLDQLMMKWIVQEGRDMFNLQSNSFAIADGLKTDLDMQIYDMGITVSQLTIMSFTYPEEIQQMIAKAASHTMIGDMGRYQQVSVLDGIAGGKGQGGSAAADMAGMAIGMQMANEMIKGVTSPQREQTQGRGSHAPQGGSEPGLIKPNFCPNCGQKTDGANFCSNCGQKLVLEHHHHHH | soluble
MSLPDATVVKAFLLDLQHRICAGLEQLDGQASFAADSWTRAEGGGGTSRVLTQGAVFEQAGVNFSHVTGAAMPASATAHRPELAGRSFEAMGVSLVIHPKNPYIPTTHANVRFFIAHKDGAEPVWWFGGGFDLTPYYPFEEDVREWHQSAKNLCQPFGDDVYPKYKKWCDEYFFLPHRNETRGVGGLFFDDLNQAGFDKSFDFMQAVGNGFLTAYAPIVERRKDTDYGERERDFQLYRRGRYVEFNLVYDRGTLFGLQTGGRTESILMSMPPLVRWQYAYTPAAGSPEADLYDNYLKPRDWVLEHHHHHH | not soluble
DERKRQESLIQSMFMPREILRASLSDVDLNDDGRIKAIRFAERFVAEYEPGKKMKGLYLHGSFGVGKTYLLAAIANELAKRNVSSLIVYVPELFRELKHSLQDQTMNEKLDYIKKVPVLMLDDLGAEAMSSWVRDDVFGPILQYRMFENLPTFFTSNFDMQQLAHHLTYSQRGEEEKVKAARIMERIRYLAYPIEITGPNRR | soluble
MAHHHHHHMGTLEAQTQGPGSMVTANSTVKVGNVTFSNSAPLALIAGPCQMETRDHAFEMAGRLKEMTDKLGIGLVYKSSFDKANRTSLKAARGIGLEKALEVFSDLKKEYGFPVLTDIHTEEQCAAVAPVVDVLQIPAFLCRQTDLLIAAARTGRVVNVKKGQFLAPWDMKNVLAKITESGNPNVLATERGVSFGYNTLVSDMRALPIMAGLGAPVIFDATHSVQQPGGQGGSTGGQREFVETLARAAVAVGVAGFFIETHEDPDNAPSDGPNMVPIDKMPALLEKLMAFDRIAKAL | soluble
MTSRWGKYLLSGIMIAVLAGCQSRPTDRGQQYKDGRLEQSLELVNEPNAAGKPVNAKDYSDQVKVINQSSPGLYNRNSDTFNAVQNWMLAGADTSKLSLFGLNAYQMEGVDNFGNVQFTGYYTPVLQARYTPQGEFRHPLYRMPAKGKRRLPDRAAIYAGALDNRNLIIAYTNSLVDNFMMEVQGSGYVDYGDGRPLTFFGYAGKNGHAYRSIGKVLIDRGEVARADMSMQAIRQWAENHSEAEVRELLEQNPSFVFFKPVMYAPVKGASAVPLIAKASVASDKSLIPPGTTLLAEVPLLDDQGKFTGKYQMRLMVALDVGGAIKGQHFDIYQGIGHEAGQAAGFYNHYGRVWVLKNAQSSGPLFTAYKGGTQSEPTSNDSSLLVNNQDR | not soluble
MNRYITRGIDNNLPIILQQQLWKLVAQRENEQSKELEAIDYFHIFQFNMHNDQLCIKHKQERPEYIKTHKANYSKAINIKKVYIIREDDVDLSYYVMLLPEEYAAALEHHHHHH | soluble
MGSDKIHHHHHHMRIAFSTLGCPQAPLHEVTALAREHRVDGLELRIHDDGIVSDHMDRSRREQVRASISRTGLTVLSLGSYIKVCQPGPDETVVRQLRTALELAADVGAEAVRVFPGAGTGPTTDHYGIAVTELDMRGSSRLAAAAPIAERLGLRLLLETHDSHPRGVDISRILAPFRAEDPVGAIWDVMHPWRFGEDPVQTAHQLGSHYQYVQFKDATMDRQTGNLTMTLPGAGDIPLQRILDLVVARTPTTEEPWISLEWEKAWHPELPGLPEALIAFKTLLGRPESDAALSGSPRRPGSAAGARRNGTL | not soluble
MQERHTEQDYRALLIADTPIIDVRAPIEFEHGAMPAAINLPLMNNDERAAVGTCYKQQGSDAALALGHKLVAGEIRQQRMDAWRAACLQNPQGILCCARGGQRSHIVQSWLHAAGIDYPLVEGGYKALRQTAIQATIELAQKPIVLIGGCTGSGKTLLVQQQPNGVDLEGLARHRGSAFGRTLQPQLSQASFENLLAAEMLKTDARQNLRLWVLEDESRMIGSNHLPECLRERMTQAAIAVVEDPFEIRLERLNEEYFLRMHHDFTHAYGDEQGWQEYCEYLHHGLSAIKRRLGLQRYNELAARLDAALTTQLTTGSTDGHLAWLVPLLEEYYDPMYRYQLEKKAEKVVFRGEWAEVAEWVKAR | soluble
MSKSTAEIRQAFLDFFHSKGHQVVASSSLVPHNDPTLLFTNAGMNQFKDVFLGLDKRNYSRATTSQRCVRAGGKHNDLENVGYTARHHTFFEMLGNFSFGDYFKHDAIQFAWELLTSEKWFALPKERLWVTVYESDDEAYEIWEKEVGIPRERIIRIGDNKGAPYASDNFWQMGDTGPCGPCTEIFYDHGDHIWGGPPGSPEEDGDRYIEIWNIVFMQFNRQADGTMEPLPKPSVDTGMGLERIAAVLQHVNSNYDIDLFRTLIQAVAKVTGATDLSNKSLRVIADHIRSCAFLIADGVMPSNENRGYVLRRIIRRAVRHGNMLGAKETFFYKLVGPLIDVMGSAGEDLKRQQAQVEQVLKTEEEQFARTLERGLALLDEELAKLSGDTLDGETAFRLYDTYGFPVDLTADVCRERNIKVDEAGFEAAMEEQRRRAREASGFGADYNAMIRVDSASEFKGYDHLELNGKVTALFVDGKAVDAINAGQEAVVVLDQTPFYAESGGQVGDKGELKGANFSFAVEDTQKYGQAIGHIGKLAAGSLKVGDAVQADVDEARRARIRLNHSATHLMHAALRQVLGTHVSQKGSLVNDKVLRFDFSHNEAMKPEEIRAVEDLVNTQIRRNLPIETNIMDLEAAKAKGAMALFGEKYDERVRVLSMGDFSTELCGGTHASRTGDIGLFRIISESGTAAGVRRIEAVTGEGAIATVHADSDRLSEVAHLLKGDSNNLADKVRSVLERTRQLEKELQQLKEQAAAQESANLSSKAIDVNGVKLLVSELSGVEPKMLRTMVDDLKNQLGSTIIVLATVVEGKVSLIAGVSKDVTDRVKAGELIGMVAQQVGGKGGGRPDMAQAGGTDAAALPAALASVKGWVSAKLQ | soluble
MNMDFNLFMNDIVRQARQEITAAGYTELKTAEEVDEALTKKGTTLVMVNSVCGCAGGIARPAAYHSVHYDKRPDQLVTVFAGQDKEATARARDYFEGYPPSSPSFAILKDGKIMKMVERHEIEGHEPMAVVAKLQEAFEEYCEEV | not soluble
MDKKELFDALDDFSQQLLVTLADVEAIKKNLKSLVEENTALRLENSKLRERLGEVEADAPVKAKHVRESVRRIYRDGFHVCNDFYGQRREQDEECMFCDELLYRE | not soluble
MSLSKNPTSGFRLTHVGLRVTDIDRSVTFYTSVFGMKELGRMGLDTTTVVFLGYPDAADPQTQLFAREGVLELKSQRGMAESNDYPDFRFVKLAIGVPDMATAMEHIRSHNVKILKEAGVAQGSEVVSTFLGCDMPDKGFDRPLWEAVVAVPFVEDPDGYLIEIIPYEGHHHHHH | soluble
MFDLPVETEEQRRNYRIFRKELIQEGFVMIQYSIYVRVCPSREFANRIENRIKKNLPLEGNVRLLCVTEKQYDDMKLLVGSRQTSETAIGTERLIIILEHHHHHH | not soluble
CSSPKPDAEEQGVPVSPTASDPALLAEIRQSLDATKGLTSVHVAVRTTGKVDSLLGITSADVDVRANPLAAKGVCTYNDEQGVPFRVQGDNISVKLFDDWSNLGSISELSTSRVLDPAAGVTQLLSGVTNLQAQGTEVIDGISTTKITGTIPASSVKMLDPGAKSARPATVWIAQDGSHHLVRASIDLGSGSIQLTQSKWNEPVNVD | soluble
MGSDKIHHHHHHMERAMKILAHRGWWLEPVEKNSETAFRRAFENGFGVETDTRDQNGVLKIAHDMPVGDQVMDLDYFLDLHKSYAGSGTIAMNIKADGLHKALRASLEGAGITDLFCFDMAVPDAIGYLNNGFITYTRHSELEPLPPFYDKAQGVWLDAFYSDWITPDVIQKHLDAGKKVALVSPELHGRDHTAAWDVWGDLTGDDISICTDLPHLAAEKWG | not soluble
PNFSEGSSSTESTVRVKHKIEKTTQKLSETVRPRDMFIHDDGAHYKVDDNALYEEIWSDLPHWDVKGIKDISDQYDKAGFKSWFYGIGGSEAKLDLQFSDTIPIDIFQTLFKWSNQSFEYSSFDHILIPFNETKANKKIYLVSYSKQLILEVTVESANYRNIMNDLKNRQSNMPAFSLFSIGSKKEFLLPNKPLTMDKKEFVTESIKTNTFKQALFSDPSIVREDSNYNNRNVLTDGISRLDVNLSQRQVQFQQRNLVQSTSYQTGELIKKSQKYLEDTGSWTDHYQFFNINDSQQLSFYIFMDQIPVINSTAKPFGATSAITVQWANDDILSYKRPNYSLGTNPIKTSETELMGGSEVKMLLSKQTAYDTDKIDQIFLAYQLVSTSTNDDPLVELEPVWAMKVNGKIVPITKDLLRKEGANSGVE | soluble
MPTISRSALVMYSVDQMYQLINDIPAYPKFLPDCNDSKVIDQDEQSVTAALLVSKGGLSKWFTTKNTLISNEKIHLSLVDGPFKKLEGYWLLTPLSDEACKVSLELEYEFSNKLVSLAFGKVFGHFSNSLVQVFTQRAKEIYGVNVLEHHHHHH | soluble
MIELTITNATITAGDTPLLTNASLHVGSGECVALMGESGSGKTTLAQAILGYLAPGCRWCSGSIDVDGLNPLQLAPRSLRELRKRCAYVDQDPGAALPPGHSVRSIVRSRASLSDAQMLSIFGDFGLGDIDR | not soluble
